# Test results published in patent US20230212304A1 (BIOSION, published 2023).
# T1: recombinant human CTLA4 protein with human IgG1 Fc tag at the C-terminus (Acro biosystems, Cat#CT4-H5255) (human, UniProt P16410 37-162)
# T1 construct: bought protein; also called human CTLA4-Fc; CTLA4-Fc; not shown: human IgG1 Fc tag at the C-terminus
# T1 sequence (looked up): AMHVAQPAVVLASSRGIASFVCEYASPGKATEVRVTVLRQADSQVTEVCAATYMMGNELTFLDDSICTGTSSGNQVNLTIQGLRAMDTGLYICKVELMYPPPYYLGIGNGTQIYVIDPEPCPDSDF
# T2: recombinant human CTLA4-his protein (Acro biosystems, Cat#CT4-H5229) (human, UniProt P16410 37-162)
# T2 construct: bought recombinant protein; not shown: his tag
# T2 sequence (looked up): T1 sequence (looked up)
# T3: cynomolgus monkey CTLA4-his protein (Acro biosystems, Cat#CT4-C5227) (cynomolgus monkey, UniProt G7PL88 36-161)
# T3 construct: bought recombinant protein; also called Cynomolgus CTLA4-his; not shown: his tag
# T3 sequence: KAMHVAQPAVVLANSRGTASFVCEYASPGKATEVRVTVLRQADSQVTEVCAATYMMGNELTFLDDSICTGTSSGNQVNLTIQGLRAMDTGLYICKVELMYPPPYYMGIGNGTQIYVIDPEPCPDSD
# B1: chimeric D1D5 anti-CTLA4 antibody (antibody, human IgG4 S228P, kappa, V domains shown)
# VH: EVKLVESGGGLVKPGGSLKLSCAASGFTFSDYGMAWVRQAPGKGPEWVAFISNLAYSVYYADTETGRFTISREDAKNTLYLEMSSLRSEDTAMYYCARSGLPYAMDYWGQGTSVTVSS
# VL: DIQMTQTTSSLSASLGDRVTISCRASQDISNYLNWYQQKPDGTVKLLIYYISRLHSGVPSRFSGSGSGTDFSLTISNLEQEDIATYFCQQGRMLPWTFGGGTRLEIKR
# notes: mouse variable domains on human IgG4/kappa, made in 293F cells
# Key:
# [1] = target: T1, recombinant human CTLA4 protein with …; assay: cell based blocking FACS: antibody pre-mixed with human CTLA4-Fc, added to Daudi cells; blocked ligands: cell surface CD80/CD86
# Description: Daudi cells were harvested from cell culture flasks at the log phase, washed twice and re-suspended in PBS containing 2% v/v Fetal Bovine Serum (FACS buffer). […] Cells were washed twice and re-suspended in FACS buffer. Fluorescence was measured using a Becton Dickinson FACS Canto II-HTS equipment. Data was analyzed using Graphpad Prism software and IC₅₀ values were reported.
# [2] = target: T1, recombinant human CTLA4 protein with …; assay: competitive ELISA: antibody pre-mixed with biotin human CTLA4-Fc, added to plate coated with the benchmark; competitor: coated Yervoy
# Description: Plates were washed once with wash buffer, blocked with 200 µl PBST with 5% w/v non-fatty milk, incubated for 2 hours at 37° C., and washed 4 times.
# After incubation at 37° C. for 40 minutes, plates were washed 4 times again using wash buffer. Then the plates were added and incubated with 100 µl/well streptavidin conjugated HRP (1:10000 dilution in PBST, Jackson Immuno Research, Cat#016-030-084, 100 µl/well) for 40 minutes at 37° C. Plates were finally washed using wash buffer. Finally, TMB was added and the reaction was stopped using 1M H₂SO₄, and the absorbance of the each well was read on a microplate reader using dual wavelength mode with 450 nm for TMB and 630 nm as the reference wavelength, then the OD (450-630) values were plotted against antibody concentration. Data was analyzed using Graphpad Prism software and IC₅₀ values were reported.
# (§1) In the capture ELISA assay, the 96-well micro plates were coated with 2 µg/ml goat anti-human IgG (AffiniPure Goat Anti-Human IgG, F(ab′)₂ fragment specific, Jackson Immunoresearch, Cat#109-005-097) instead of the goat anti-mouse IgG F(ab′)₂ fragment, 100 µl/well.
# [3] = target: T2, recombinant human CTLA4-his protein …; assay: BLI, Octet; antibody at 5 ug/ml on AHC sensor, CTLA4-his as analyte
# Description: (§2) Briefly, AHC biosensors (anti-human IgG Fc capture, from ForteBio) were presoaked with 10 mM glycine (pH 1.5) for 3 seconds, and then dipped in a well with running buffer (0.5% w/v BSA in PBST) for 3 seconds, the soaking and dipping steps were repeated for three times. […] A new baseline was run for 180 seconds in another well with running buffer. […] Finally, sensors were presoaked with 10 mM glycine (pH 1.5) for 3 seconds, and then were dipped in a well with running buffer for 3 seconds, the soaking and dipping steps repeated for three times. The association and dissociation curves were fit to a 1:1 Langmuir binding model using ForteBio Data Analysis 8.1.
# [4] = target: T1, recombinant human CTLA4 protein with …; assay: capture ELISA (plate coated with goat anti-human IgG F(ab')2 per paragraph 181), biotin human CTLA4-Fc, streptavidin-HRP, OD(450-630)
# Description: Plates were washed once with wash buffer (PBS+0.05% v/v Tween-20, PBST) and then blocked with 200 µl/well blocking buffer (PBST with 5% w/v non-fatty milk) for 2 hours at 37° C. […] After a final wash, plates were incubated with 100 µl/well substrate TMB (Innoreagents, Cat#TMB-S-002). The reaction was stopped in 15 minutes at room temperature with 50 µl/well 1M H₂SO₄, and the absorbance of the each well was read on a microplate reader using dual wavelength mode with 450 nm for TMB and 630 nm as the reference wavelength, then the OD (450-630) values were plotted against antibody concentration. Data was analyzed using Graphpad Prism software and EC₅₀ values were reported.
# as §1
# [5] = target: T3, cynomolgus monkey CTLA4-his protein …; assay: SPR, Biacore; antibody captured on anti-human IgG CM5 chip, CTLA4-his as analyte
# Description: (§3) Un-reacted moieties on the biosensor surface were blocked with ethanolamine. […] The antigen-antibody association kinetics was followed for 2 minutes and the dissociation kinetics was followed for 10 minutes. The association and dissociation curves were fit to a 1:1 Langmuir binding model using BIAcore evaluation software. […]
# [6] = target: T2, recombinant human CTLA4-his protein …; assay: as above
# Description: as §3
# [7] = target: T1, recombinant human CTLA4 protein with …; assay: capture ELISA: antibody captured on coated plate (anti-human IgG Fc for the chimeric antibodies), biotin human CTLA4-Fc, streptavidin-HRP, OD(450-630)
# [8] = target: T2, recombinant human CTLA4-his protein …; assay: BLI, Octet RED96; antibody on AHC sensor, CTLA4-his as analyte
# Description: as §2
# [9] = target: T1, recombinant human CTLA4 protein with …; assay: cell-based or functional assay
# [10] = target: T1, recombinant human CTLA4 protein with …; assay: cell based blocking FACS: antibody pre-mixed with human CTLA4-Fc, added to Daudi cells; blocked ligands: cell surface CD80/CD86; remark: listed apart in the source
binder,measurement,setting,value
B1,IC50,[1],6 nM
same,IC50,[2],0.785 nM
same,Kd,[3],< 0.001 nM
same,koff,[3],< 1e-07 s⁻¹
same,kon,[3],132000 M⁻¹ s⁻¹
same,EC50,[4],0.575 nM
same,Kd,[5],0.968 nM
same,koff,[5],0.000505 s⁻¹
same,kon,[5],521000 M⁻¹ s⁻¹
same,Kd,[6],1.93 nM
same,koff,[6],0.000404 s⁻¹
same,kon,[6],209000 M⁻¹ s⁻¹
same,EC50,[7],0.992 nM
same,Kd,[8],5.32 nM
same,koff,[8],0.00166 s⁻¹
same,kon,[8],312000 M⁻¹ s⁻¹
same,"EC50 of IL-2 release (GS-J1 T cells + GS-C1/CD80 cells + human CTLA4-Fc, IL-2 HTRF)",[9],82.1 nM
same,IC50,[10],12.6 nM
